Results reported in patent US20020115066A1, “Viral therapeutics” (priority 1998, published 2002).
Peptide text beside a SMILES is read from it. * marks the point of attachment. Cbz = O=C(OCc1ccccc1)*

B1: pSFV/GB1-141: SFV construct with epitope-tagged GBV-B core, residues 1-141 of the GBV-B polyprotein (protein)
chain: MPVISTQTSPVPAPRTRKNKQTQASYPVSIKTSVERGQRAKRKVQRDARPRNYKIAGIHDGLQTLAQAALPAHGWGRQDPRHKSRNLGILLDYPLGWIGDVTTHTPLVGPLVAGAVVRPVCQIVRLLEDGVNWATGWFGVH
modifications: left off: small tags and cut ends
B2: pSFV/GB1-398: SFV construct with epitope-tagged GBV-B core, residues 1-398 of the GBV-B polyprotein (protein)
chain: MPVISTQTSPVPAPRTRKNKQTQASYPVSIKTSVERGQRAKRKVQRDARPRNYKIAGIHDGLQTLAQAALPAHGWGRQDPRHKSRNLGILLDYPLGWIGDVTTHTPLVGPLVAGAVVRPVCQIVRLLEDGVNWATGWFGVHLFVVCLLSLACPCSGARVTDPDTNTTILTNCCQRNQVIYCSPSTCLHEPGCVICADECWVPANPYISHPSNWTGTDSFLADHIDFVMGALVTCDALDIGELCGACVLVGDWLVRHWLIHIDLNETGTCYLEVPTGIDPGFLGFIGWMAGKVEAVIFLTKLASQVPYAIATMFSSVHYLAVGALIYYASRGKWYQLLLALMLYIEATSGNPIRVPTGCSIAEFCSPLMIPCPCHSYLSENVSEVICYSPKWTRPVTLE
modifications: left off: small tags and cut ends

Experiments:
proteasome = test: Western blot of core protein after treatment with proteasome inhibitor MG132; assay type: cell-based, hamster; settings: cells electroporated with pSFV.1-124, 145-152; MG132 2.5 μM from 4 hours after electroporation, harvested at 16 hours
Method: A. Western Blot analysis of extracts prepared from cells which were harvested 16 hours after electroporation following treatment with proteasomal inhibitor MG132. Aliquots of extracts containing the same number of cell equivalents were analyzed with antibody JM122. The samples were from cells electroporated with RNA from the following constructs: lanes 1 and 2, PSFV.1-195; lanes 3 and 4, pSFV.1-124, 145-152; lanes 5 and 6, pSFV.Δ125-144; lanes 7 and 8, pSFV.1-153; lanes 9 and 10, no RNA. Samples in lanes with odd numbers were prepared from cells not treated with MG132. Samples in lanes with even numbers were prepared from cells which had been incubated in the presence of MG132 (final concentration 2.5 μM) from 4 hours after electroporation.
For Western blot analysis, proteins were separated on polyacrylamide gels and transferred to nitrocellulose membrane using standard techniques. The nitrocellulose membrane was blocked in 3% gelatin, 20 mM Tris (pH 7.5), 500 mM NaCl for at least 6 hours at 37° C. prior to incubation with the primary antibody. Incubations with the primary antibody (diluted to 1/500for adipophilin antibody and 1/1000for JM122) were performed in 1% gelatin, 20 mM Tris (pH 7.5), 500 mM NaCl, 0.05% Tween 20 at either room temperature or 37° C. for approximately 3-4 hours. […] Bound antibody was detected by enhanced chemiluminescence.

lipid droplets = test: Intracellular localization of tagged GBV-B and HCV core proteins (Example 10); assay type: cell-based, hamster; settings: BHK cells, epitope tag detected with antibody 9220 or JM122, oil red O
Description: To express portions of the GBV-B polyprotein, relevant regions were amplified by PCR from a construct pGBB (30). pGBB contains the consensus sequence for an infectious molecular clone of GBV-B (30). Primers for PCR amplification were derived from the viral sequences in pGBB and were used in the following pairs to produce DNA fragments that encoded N-terminal regions of the GBV-B polyprotein: residues 1-141, GBV-B primers 1 and 2; residues 1-194, GBV-B primers 1 and 3; residues 1-398, GBV-B primers 1 and 4. Amplified fragments were introduced initially into plasmid pGEM1 and thereafter into pSFV1 by standard cloning techniques. To permit detection of GBV-B core, an epitope tag (32) was introduced into the coding region immediately following amino acid residue 85 (FIG. 7). […] An oligonucleotide encoding the epitope tag (GBV-B5 in Table 1) was inserted between this XbaI site and a TfiI site (position 708 in the native GBV-B nucleotide sequence). The final SFV constructs that contained tagged versions of GBV-B core were termed pSFV/GB1-141, pSFV/GB1-194 and pSFV/GB1-398. […]
Cells on 13 mm coverslips were fixed for 30 min in 4% paraformaldehyde, 0.1% Triton X-100 (prepared in phosphate-buffered saline) at 4° C. […] Samples were analyzed using a Zeiss LSM confocal microscope.

Molecule | increase in the amount of protein detected by Western blot analysis (proteasome) [fold] | intracellular localization relative to lipid droplets (lipid droplets)
CC(C)C[C@@H](C=O)NC(=O)[C@H](CC(C)C)NC(=O)[C@H](CC(C)C)NC(=O)OCc1ccccc1 [MG132] (Cbz-Leu-Leu-Leu-aldehyde) | 4 | 
B1 |  | localization of the protein around lipid droplets
B2 |  | staining around lipid droplets
